Results: PMC4700666, “The structure of a prophenoloxidase (PPO) from Anopheles gambiae provides new insights into the mechanism of PPO activation” (BMC Biology, 2016)

Biological target: the molecule itself
Assay: SEC; size exclusion chromatography of purified AgPPO8 against standard proteins; eluted at a similar retention volume as bovine γ-globulin

B1: Anopheles gambiae prophenoloxidase 8 (AgPPO8) (enzyme, UniProt Q8MZM3 1-700, looked up)
chain: MATLTQKFHGLLQHPLEPLFLPKNDGTLFYDLPERFLTSRYSPIGQNLANRFGPNSPASSQVSNDTGVPPTVVTIKDLDELPDLTFATWIKRRDSFSLFNPEHRKAAGKLTKLFLDQPNADRLVDVAAYARDRLNAPLFQYALSVALLHRPDTKSVSVPSLLHLFPDQFIDPAAQVRMMEEGSIVLDENRMPIPIPMNYTATDAEPEQRMAFFREDIGVNLHHWHWHLVYPASGPPDVVRKDRRGELFYYMHQQLLARYQIDRYAQGLGRIEPLANLREPVREAYYPKLLRTSNNRTFCPRYPGMTISDVARSADRLEVRIADIESWLPRVLEAIDAGFAVSDDGVRVPLDETRGIDVLGNILERSAISINRNLYGDVHNMGHVLLAFIHDPRGTYLESSGVMGGVATAMRDPIFYRWHKFIDNIFLRNKARLAPYTMAELSNSNVTLEALETQLDRAGGAVNSFVTFWQRSQVDLRAGIDFSAAGSAFVSFTHLQCAPFVYRLRINSTARSNRQDTVRIFLLPRQNEQGRPLSFEDRRLLAIELDSFRVNLRPGMNNIVRQSSNSSVTIPFERTFGNVEQANAGNAQSRFCGCGWPAHMLLPKGNANGVEFDLFAMVSRFEDDNANVNYDENAGCDDSYAFCGLRDRVYPSRRAMGFPFDRRASNGVRSVADFVAPYKNMRLATVTLRFMNTIIDRPTN
notes: Prophenoloxidase 8 (PPO8) of Anopheles gambiae, zymogen; cDNA amplified from a cDNA pool of second instar larvae; each subunit in the crystal comprises 700 residues (numbered 1-700; pro-region 17-81, domain I 1-16 and 82-196, domain II 197-435, domain III 436-697); Expressed as a SUMO fusion with an N-terminal 6xHis tag; also called A. gambiae PPO8; source: E. coli BL21 gold (DE3), purified …
  stoichiometry N: 2
